The record followed here is article PMC9445180 (2022).

One test addresses T1, HTRA3^PD/PDZ-LoopA^HTRA1 (human, UniProt P83110 130-160; P83110 171-453).
T1 chain: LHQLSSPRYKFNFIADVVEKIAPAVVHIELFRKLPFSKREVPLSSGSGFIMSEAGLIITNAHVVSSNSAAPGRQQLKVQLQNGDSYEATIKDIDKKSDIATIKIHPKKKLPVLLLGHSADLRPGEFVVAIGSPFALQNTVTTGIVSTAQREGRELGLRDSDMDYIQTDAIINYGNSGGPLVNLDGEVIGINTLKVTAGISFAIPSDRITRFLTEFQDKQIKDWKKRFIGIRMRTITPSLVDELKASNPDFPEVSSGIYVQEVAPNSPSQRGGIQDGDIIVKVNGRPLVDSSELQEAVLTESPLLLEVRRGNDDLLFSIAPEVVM
The test is described as follows: SPR. A general note: SPR reads the build-up and loss of mass on a sensor chip optically.

The next test deals with T2, HTRA2^PD/PDZ-LoopA^HTRA1 (human, UniProt O43464 134-167; O43464 178-458).
T2 chain: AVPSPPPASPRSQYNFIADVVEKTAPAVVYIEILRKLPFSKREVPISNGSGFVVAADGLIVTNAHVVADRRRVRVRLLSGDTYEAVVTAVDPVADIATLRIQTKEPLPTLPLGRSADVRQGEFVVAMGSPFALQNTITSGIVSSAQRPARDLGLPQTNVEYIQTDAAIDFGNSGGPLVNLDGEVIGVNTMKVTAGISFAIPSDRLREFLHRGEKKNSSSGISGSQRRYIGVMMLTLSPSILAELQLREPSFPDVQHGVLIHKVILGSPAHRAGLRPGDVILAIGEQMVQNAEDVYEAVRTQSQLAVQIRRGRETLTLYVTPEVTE
Put plainly: SPR.

B1: Fab15H6.v4 (Fab, V domains shown)
VH: EVQLVQSGAEVKKPGASVKVSCKASGYKFTDSEMHWVRQAPGQGLEWIGGVDPETEGAAYNQKFKGRATITRDTSTSTAYLELSSLRSEDTAVYYCTRGYDYDYALDYWGQGTLVTVSS
VL: DIQMTQSPSSLSASVGDRVTITCRASSSVEFIHWYQQKPGKAPKPLISATSNLASGVPSRFSGSGSGTDFTLTISSLQPEDFATYYCQQWSSAPWTFGQGTKVEIK
The Kd is the free concentration of one partner at which half of the binding sites on the other are occupied at equilibrium, for simple one-to-one binding. Low values mean tighter binding, high ones weaker binding. In the case of B1, the results for the Kd with HTRA3^PD/PDZ-LoopA^HTRA1 and in the test with HTRA2^PD/PDZ-LoopA^HTRA1 were 0.0356 nM and 0.0526 nM, respectively.
